From publication PMC10076222, “From primordial clocks to circadian oscillators” (Nature, 2023)
One block for each molecule: values may come before it.

Columns and labels:
[1] = biological target: KaiC from Rhodobacter sphaeroides KD131, wild type, full length (KaiCRS) (Rhodobacter sphaeroides strain KD131/KCTC 12085)
[2] = biological target: KaiC from Rhodobacter sphaeroides KD131, wild type, full length (KaiCRS) (Rhodobacter sphaeroides strain KD131/KCTC 12085); remark: listed apart in the source
[3] = biological target: KaiCRS-S413E/S414E (phosphomimetic mutant) (Rhodobacter sphaeroides strain KD131/KCTC 12085); test: cryo-EM structure; KaiCRS-S413E/S414E:KaiBRS complex, 20 mM MOPS pH 6.50, 50 mM NaCl, 2 mM TCEP, 10 mM MgCl2, 2 mM ATP; ADP in the CI domain
[4] = biological target: KaiC from Rhodobacter sphaeroides KD131, wild type, full length (KaiCRS) (Rhodobacter sphaeroides strain KD131/KCTC 12085); test: fluorescence polarisation; anisotropy competition, 30 °C: KaiBRS-6IAF (0.2-0.4 μM) with KaiCRS (1 μM), unlabelled KaiBRS 0-50 μM, 20 mM MOPS pH 6.5, 50 mM NaCl, 2 mM TCEP, 10 mM MgCl2, 4 mM ADP; 4 h or 12 h; Kd calculated from IC50
[5] = biological target: KaiCRS-S413E/S414E (phosphomimetic mutant) (Rhodobacter sphaeroides strain KD131/KCTC 12085); test: as above
[6] = biological target: His6-MBP-TEV-KaiBRS (KaiBRS-tag) (Rhodobacter sphaeroides strain KD131/KCTC 12085); test: pull-down; as a10 but with 4 mM ATP and an ATP-recycling system instead of ADP
Chain of His6-MBP-TEV-KaiBRS (KaiBRS-tag) (Rhodobacter sphaeroides strain KD131/KCTC 12085) (main, as listed by the source): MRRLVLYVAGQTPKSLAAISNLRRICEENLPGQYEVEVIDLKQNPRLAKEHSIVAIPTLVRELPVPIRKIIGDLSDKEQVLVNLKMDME

[7] = biological target: KaiCRS-S413E/S414E (phosphomimetic mutant) (Rhodobacter sphaeroides strain KD131/KCTC 12085); test: cryo-EM structure; KaiCRS-S413E/S414E alone, 4.3 mg/ml in 20 mM MOPS pH 6.50, 50 mM NaCl, 2 mM TCEP, 10 mM MgCl2, 2 mM ATP; hexamers processed with C6, dodecamer with D6 symmetry
[8] = biological target: KaiCRS-CI domain (KaiCIRS) (Rhodobacter sphaeroides strain KD131/KCTC 12085); test: SEC; Superdex-200 10/300 GL, about 40-80 μM protein, 20 mM MOPS pH 6.5, 50 mM NaCl, 2 mM TCEP, 10 mM MgCl2, 1 mM ATP, 4 °C
KaiCRS-Δcoil = biological target: T1, KaiCRS-Δcoil (Cereibacter sphaeroides, UniProt A0AAX7FLD9, E415S/E416S); test: X-ray crystal structure; assay type: binding; settings: ADP in all active sites
T1 construct: C-terminal coiled-coil truncated at Glu490 (stop codon introduced at position 490)
T1 sequence (A0AAX7FLD9 entry or part of it E415S/E416S): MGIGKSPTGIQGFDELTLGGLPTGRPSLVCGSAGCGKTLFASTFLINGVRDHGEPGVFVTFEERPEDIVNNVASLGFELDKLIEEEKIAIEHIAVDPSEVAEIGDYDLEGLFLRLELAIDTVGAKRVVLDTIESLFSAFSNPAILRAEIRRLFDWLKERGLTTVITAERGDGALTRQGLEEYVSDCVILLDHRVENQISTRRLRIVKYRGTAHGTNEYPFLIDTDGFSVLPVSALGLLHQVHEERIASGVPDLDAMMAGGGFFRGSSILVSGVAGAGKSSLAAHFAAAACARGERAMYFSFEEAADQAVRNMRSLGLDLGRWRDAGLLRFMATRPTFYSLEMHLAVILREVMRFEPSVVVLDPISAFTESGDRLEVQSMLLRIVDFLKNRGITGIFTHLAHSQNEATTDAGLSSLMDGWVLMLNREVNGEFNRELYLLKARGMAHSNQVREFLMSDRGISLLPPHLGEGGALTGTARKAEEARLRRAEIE

KaiCRS = KaiCRS (Cereibacter sphaeroides, UniProt A0AAX7FLD9, E415S/E416S); test: […] phosphoryl transfer from phosphoserine to ADP, TLC autoradiography; assay type: biochemical; settings: 4 mM ADP, ATP synthase reaction in CII domain, Ser413, pH 6.5, 30 °C
Chain of KaiCRS (A0AAX7FLD9 entry or part of it E415S/E416S): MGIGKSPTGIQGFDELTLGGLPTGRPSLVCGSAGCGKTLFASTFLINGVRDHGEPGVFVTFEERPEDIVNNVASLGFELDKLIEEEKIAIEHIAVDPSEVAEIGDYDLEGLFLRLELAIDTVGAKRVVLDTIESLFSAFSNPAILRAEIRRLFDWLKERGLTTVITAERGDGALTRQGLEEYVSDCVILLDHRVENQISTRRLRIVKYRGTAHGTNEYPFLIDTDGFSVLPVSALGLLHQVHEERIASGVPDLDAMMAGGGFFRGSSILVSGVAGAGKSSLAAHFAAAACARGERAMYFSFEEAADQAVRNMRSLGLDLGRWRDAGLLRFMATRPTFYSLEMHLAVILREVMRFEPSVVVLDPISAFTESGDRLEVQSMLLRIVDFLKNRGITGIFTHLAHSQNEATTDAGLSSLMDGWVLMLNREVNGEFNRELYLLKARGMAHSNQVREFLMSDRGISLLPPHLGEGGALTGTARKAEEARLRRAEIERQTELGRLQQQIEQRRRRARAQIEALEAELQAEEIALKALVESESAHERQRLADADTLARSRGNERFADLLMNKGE

[9] = biological target: KaiCRS-Δcoil (KaiCRS truncated at residue Glu490) (Rhodobacter sphaeroides strain KD131/KCTC 12085); test: SEC; Superdex-200 10/300 GL, about 40-80 μM protein, 20 mM MOPS pH 6.5, 50 mM NaCl, 2 mM TCEP, 10 mM MgCl2, 1 mM ATP, 4 °C
[10] = biological target: KaiCRS-Δcoil (KaiCRS truncated at residue Glu490) (Rhodobacter sphaeroides strain KD131/KCTC 12085); test: AUC; sedimentation velocity, 30,000 r.p.m., 20 °C, 295 nm; 100 μM protein, 1 mM ATP (KaiCRS forms: 20 mM MOPS pH 6.5, 50 mM NaCl; KaiCSE: 20 mM MOPS pH 8.0, 150 mM NaCl)
[11] = biological target: KaiCRS-Δcoil (KaiCRS truncated at residue Glu490) (Rhodobacter sphaeroides strain KD131/KCTC 12085); test: crystal structure; KaiCRS-Δcoil, sitting drop at 291 K; 200 mM ammonium acetate, 100 mM sodium citrate pH 5.6, 30% PEG 4,000; space group C2221, three monomers in the asymmetric unit, hexamer by PISA
[12] = biological target: KaiC from Rhodobacter sphaeroides KD131, wild type, full length (KaiCRS) (Rhodobacter sphaeroides strain KD131/KCTC 12085); test: SEC; Superdex-200 10/300 GL, unphosphorylated KaiCRS (40 μM) bound with ADP, buffer with 0.1 mM ADP instead of ATP, 4 °C
[13] = biological target: KaiC from Rhodobacter sphaeroides KD131, wild type, full length (KaiCRS) (Rhodobacter sphaeroides strain KD131/KCTC 12085); test: SEC; Superdex-200 10/300 GL, about 40-80 μM protein, 20 mM MOPS pH 6.5, 50 mM NaCl, 2 mM TCEP, 10 mM MgCl2, 1 mM ATP, 4 °C
[14] = biological target: KaiC from Rhodobacter sphaeroides KD131, wild type, full length (KaiCRS) (Rhodobacter sphaeroides strain KD131/KCTC 12085); test: AUC; sedimentation velocity, 30,000 r.p.m., 20 °C, 295 nm; 100 μM protein, 1 mM ATP (KaiCRS forms: 20 mM MOPS pH 6.5, 50 mM NaCl; KaiCSE: 20 mM MOPS pH 8.0, 150 mM NaCl)
[15] = biological target: KaiC from Rhodobacter sphaeroides KD131, wild type, full length (KaiCRS) (Rhodobacter sphaeroides strain KD131/KCTC 12085); test: crystal structure; KaiCRS, sitting drop at 291 K; protein 10 mg/ml in 20 mM MOPS pH 6.5, 50 mM NaCl, 2 mM TCEP, 5 mM MgCl2, 3 mM ATP, 1 mM AMPPCP; 200 mM MgCl2, 100 mM HEPES pH 7.5, 30% PEG 400
[16] = biological target: the molecule itself; test: SEC; Superdex-75 10/300 GL, KaiBRS 0.5 mM, 20 mM MOPS pH 6.5, 50 mM NaCl, 2 mM TCEP, 4 °C
[17] = biological target: the molecule itself; test: AUC; sedimentation velocity, 30,000 r.p.m., 20 °C, 295 nm; 100 μM protein, 1 mM ATP (KaiCRS forms: 20 mM MOPS pH 6.5, 50 mM NaCl; KaiCSE: 20 mM MOPS pH 8.0, 150 mM NaCl)

fold increase in ATPase activity of KaiCRS with KaiBRS at 30 °C [1]: 7.5 fold
ATPase activity of KaiCRS (3.5 μM) with KaiBRS (3.5 μM) in 4 mM ATP, ADP by HPLC, 20-35 °C (with KaiBRS 176, 1052, 1557, 2584; alone 108, 163, 208, 300 day^-1 KaiC^-1) [2]: 2580 ATP/day/KaiC
stoichiometry N (KaiBRS per KaiCRS dodecamer) [3]: 12
Kd [4]: 420 nM
Kd [5]: 790 nM
Molecule: KaiB from Rhodobacter sphaeroides KD131 (KaiBRS), tag cleaved (natural protein)

percent co-eluted [6]: < 30%
stoichiometry N [3]: 12
stoichiometry N [7]: 12
Molecule: KaiCRS-S413E/S414E (phosphomimetic mutant) (enzyme)

percent co-eluted [6]: < 30%
Molecule: KaiCRS-S413A/S414A (enzyme)

stoichiometry N [8]: 6
Molecule: KaiCRS-CI domain (KaiCIRS) (domain or fragment)

percent co-eluted [6]: < 30%
Molecule: phosphorylated wild-type KaiCRS (ATP-bound, with ATP-recycling system) (enzyme)

Molecule: Nc1ncnc2c1ncn2[C@@H]1O[C@H](COP(=O)(O)OP(=O)(O)O)[C@@H](O)[C@H]1O [ADP]
X-ray crystal structure (KaiCRS-Δcoil): contained three monomers in the asymmetric unit, with ADP present in all active sites
32P phosphoryl transfer from phosphoserine to ADP, TLC autoradiography (KaiCRS): KaiCRS undergoes dephosphorylation through an ATP synthase mechanism

stoichiometry N [9]: 6
stoichiometry N [10]: 6
stoichiometry N [11]: 6
Molecule: KaiCRS-Δcoil (KaiCRS truncated at residue Glu490) (domain or fragment)

stoichiometry N [12]: 12
stoichiometry N [13]: 12
stoichiometry N [14]: 12
stoichiometry N [15]: 12
Molecule: KaiC from Rhodobacter sphaeroides KD131, wild type, full length (KaiCRS) (enzyme)

B1: KaiB from Synechococcus elongatus PCC 7942 (KaiBSE) (natural protein, UniProt Q79PF5 1-102, looked up)
chain: MSPRKTYILKLYVAGNTPNSVRALKTLKNILEVEFQGVYALKVIDVLKNPQLAEEDKILATPTLAKVLPLPVRRIIGDLSDREKVLIGLDLLYGELQDSDDF
notes: KaiB of Synechococcus elongatus PCC 7942
stoichiometry N [16]: 4

B2: KaiC from Synechococcus elongatus PCC 7942 (KaiCSE) (enzyme)
chain: MTSAEMTSPNNNSEHQAIAKMRTMIEGFDDISHGGLPIGRSTLVSGTSGTGKTLFSIQFLYNGIIEFDEPGVFVTFEETPQDIIKNARSFGWDLAKLVDEGKLFILDASPDPEGQEVVGGFDLSALIERINYAIQKYRARRVSIDSVTSVFQQYDASSVVRRELFRLVARLKQIGATTVMTTERIEEYGPIARYGVEEFVSDNVVILRNVLEGERRRRTLEILKLRGTSHMKGEYPFTITDHGINIFPLGAMRLTQRSSNVRVSSGVVRLDEMCGGGFFKDSIILATGATGTGKTLLVSRFVENACANKERAILFAYEESRAQLLRNAYSWGMDFEEMERQNLLKIVCAYPESAGLEDHLQIIKSEINDFKPARIAIDSLSALARGVSNNAFRQFVIGVTGYAKQEEITGLFTNTSDQFMGAHSITDSHISTITDTIILLQYVEIRGEMSRAINVFKMRGSWHDKAIREFMISDKGPDIKDSFRNFERIISGSPTRITVDEKSELSRIVRGVQEKGPES
notes: KaiC of Synechococcus elongatus PCC 7942; source: plasmid a gift from E. K. O'Shea
stoichiometry N [17]: 6
